The supplement of paper PMC9112550, “Optimization of the antimicrobial peptide Bac7 by deep mutational scanning” (BMC Biology, 2022)

System: Escherichia coli TOP10
Assay: shrunken log2 fold change of peptide-encoding DNA abundance (4.5 h post-induction vs induction); higher = less antimicrobial activity (less host growth inhibition)
Settings: time post-induction: 4.5 h; library: site-saturation at positions 5, 18, 19, 20
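Also: peptides expressed intracellularly from a pBAD plasmid library in pooled LB shake-flask culture, induced with 0.3% L-arabinose, DNA abundance read by NGS, three biological replicates, DESeq2 with apeglm shrinkage.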

| Sequence | shrunken log2 fold change |
| --- | --- |
| RRIRTRPPRLPRPRPRPVIAPRP | -0.189 |
| RRIRFRPPRLPRPRPRPVTEPRP | -0.0132 |
| RRIRGRPPRLPRPRPRPFIIPRP | 0.102 |
| RRIRTRPPRLPRPRPRPYCTPRP | 1.36 |
| RRIRMRPPRLPRPRPRPSGGPRP | 0.738 |
| RRIRCRPPRLPRPRPRPAPGPRP | 0.75 |
| RRIRHRPPRLPRPRPRPWMAPRP | -0.347 |
| RRIRYRPPRLPRPRPRPFPPPRP | -0.809 |
| RRIRWRPPRLPRPRPRPIMNPRP | -0.473 |
| RRIRARPPRLPRPRPRPVFIPRP | -0.201 |
| RRIRHRPPRLPRPRPRPPNCPRP | -0.19 |
| RRIRHRPPRLPRPRPRPAEVPRP | -0.0107 |
| RRIRQRPPRLPRPRPRPASYPRP | -0.121 |
| RRIRVRPPRLPRPRPRPEICPRP | 0.2 |
| RRIRIRPPRLPRPRPRPVHWPRP | 0.0203 |
| RRIRIRPPRLPRPRPRPTAVPRP | 0.028 |
| RRIRLRPPRLPRPRPRPKEHPRP | 0.227 |
| RRIRHRPPRLPRPRPRPWGEPRP | -0.0132 |
| RRIRDRPPRLPRPRPRPLFAPRP | 0.65 |
| RRIRKRPPRLPRPRPRPKRKPRP | 0.89 |
| RRIRHRPPRLPRPRPRPGYYPRP | -0.318 |
| RRIRVRPPRLPRPRPRPCQNPRP | -0.293 |
| RRIRDRPPRLPRPRPRPSCHPRP | -0.287 |
| RRIRPRPPRLPRPRPRPHAHPRP | 0.00207 |
| RRIRNRPPRLPRPRPRPGLVPRP | 0.171 |

| Sequence | shrunken log2 fold change |
| --- | --- |
| RRIRHRPPRLPRPRPRPMKQPRP | -0.0525 |
| RRIRLRPPRLPRPRPRPDFRPRP | 0.0254 |
| RRIRCRPPRLPRPRPRPKHHPRP | -0.32 |
| RRIRYRPPRLPRPRPRPHHLPRP | -0.329 |
| RRIRARPPRLPRPRPRPFCKPRP | -0.25 |
| RRIRDRPPRLPRPRPRPIISPRP | 0.0102 |
| RRIRTRPPRLPRPRPRPGHVPRP | -0.144 |
| RRIRCRPPRLPRPRPRPDWAPRP | 0.0311 |
| RRIRARPPRLPRPRPRPEQAPRP | 0.759 |
| RRIRCRPPRLPRPRPRPDPHPRP | -0.015 |
| RRIRERPPRLPRPRPRPNPDPRP | -0.2 |
| RRIRHRPPRLPRPRPRPTQFPRP | -0.631 |
| RRIRVRPPRLPRPRPRPIKMPRP | -0.697 |
| RRIRLRPPRLPRPRPRPHQSPRP | -0.0648 |
| RRIRERPPRLPRPRPRPESYPRP | 0.0161 |
| RRIRLRPPRLPRPRPRPVYWPRP | -0.14 |
| RRIRKRPPRLPRPRPRPRNCPRP | 0.0613 |
| RRIRMRPPRLPRPRPRPSVGPRP | 0.357 |
| RRIRQRPPRLPRPRPRPEDVPRP | -0.0612 |
| RRIRIRPPRLPRPRPRPEFAPRP | 0.452 |
| RRIRFRPPRLPRPRPRPAMFPRP | -0.292 |
| RRIRHRPPRLPRPRPRPEKWPRP | -0.0863 |
| RRIRTRPPRLPRPRPRPQCMPRP | -0.133 |
| RRIRHRPPRLPRPRPRPQKEPRP | -0.03 |
| RRIRGRPPRLPRPRPRPQIDPRP | 0.565 |

| Sequence | shrunken log2 fold change |
| --- | --- |
| RRIRPRPPRLPRPRPRPCIIPRP | -0.438 |
| RRIRNRPPRLPRPRPRPVFTPRP | -0.349 |
| RRIRHRPPRLPRPRPRPPGSPRP | 0.0725 |
| RRIRMRPPRLPRPRPRPQFVPRP | -0.0894 |
| RRIRNRPPRLPRPRPRPQMHPRP | -0.108 |
| RRIRLRPPRLPRPRPRPEYNPRP | -0.15 |
| RRIRKRPPRLPRPRPRPCSDPRP | -0.0361 |
| RRIRIRPPRLPRPRPRPHMEPRP | -0.332 |
| RRIRARPPRLPRPRPRPSRVPRP | 2.84 |
| RRIRQRPPRLPRPRPRPPKGPRP | 0.021 |
| RRIRQRPPRLPRPRPRPAWCPRP | 0.0518 |
| RRIRKRPPRLPRPRPRPFCKPRP | 0.326 |
| RRIRQRPPRLPRPRPRPCHVPRP | -0.167 |
| RRIRWRPPRLPRPRPRPDNLPRP | -0.188 |
| RRIRCRPPRLPRPRPRPKWVPRP | 0.0707 |
| RRIRHRPPRLPRPRPRPSPYPRP | -0.703 |
| RRIRPRPPRLPRPRPRPLFVPRP | -0.176 |
| RRIRNRPPRLPRPRPRPEKKPRP | -0.113 |
| RRIRTRPPRLPRPRPRPLYVPRP | -0.4 |
| RRIRQRPPRLPRPRPRPLIPPRP | 0.114 |
| RRIRQRPPRLPRPRPRPDRLPRP | -0.0692 |
| RRIRMRPPRLPRPRPRPAPWPRP | 0.807 |
| RRIRPRPPRLPRPRPRPKREPRP | 0.1 |
| RRIRIRPPRLPRPRPRPQHNPRP | -0.735 |
| RRIRARPPRLPRPRPRPRIKPRP | -0.00918 |

| Sequence | shrunken log2 fold change |
| --- | --- |
| RRIRHRPPRLPRPRPRPPGFPRP | 0.011 |
| RRIRGRPPRLPRPRPRPNRDPRP | 0.0612 |
| RRIRYRPPRLPRPRPRPQLPPRP | -0.0333 |
| RRIRGRPPRLPRPRPRPRGDPRP | 0.481 |
| RRIRLRPPRLPRPRPRPTYHPRP | -0.358 |
| RRIRWRPPRLPRPRPRPMRMPRP | 0.329 |
| RRIRLRPPRLPRPRPRPHPQPRP | 0.0301 |
| RRIRMRPPRLPRPRPRPVYFPRP | -0.0299 |
| RRIRHRPPRLPRPRPRPRRMPRP | 0.254 |
| RRIRGRPPRLPRPRPRPELEPRP | 2.14 |
| RRIRMRPPRLPRPRPRPLQMPRP | 2.29 |
| RRIRARPPRLPRPRPRPDCEPRP | 1 |
| RRIRRRPPRLPRPRPRPQDQPRP | 0.168 |
| RRIRWRPPRLPRPRPRPREHPRP | 0.822 |
| RRIRGRPPRLPRPRPRPHAMPRP | 0.171 |
| RRIRIRPPRLPRPRPRPDFYPRP | -0.554 |
| RRIRARPPRLPRPRPRPNQSPRP | 0.0591 |
| RRIRLRPPRLPRPRPRPRQIPRP | 0.211 |
| RRIRVRPPRLPRPRPRPGHRPRP | -0.0978 |
| RRIRVRPPRLPRPRPRPGSFPRP | -0.122 |
| RRIRQRPPRLPRPRPRPCWNPRP | -0.13 |
| RRIRARPPRLPRPRPRPRYYPRP | -0.116 |
| RRIRMRPPRLPRPRPRPIEQPRP | 0.0161 |
| RRIRRRPPRLPRPRPRPSPEPRP | 0.513 |
| RRIRPRPPRLPRPRPRPKELPRP | 0.0936 |

| Sequence | shrunken log2 fold change |
| --- | --- |
| RRIRDRPPRLPRPRPRPIMLPRP | -0.0957 |
| RRIRIRPPRLPRPRPRPTSSPRP | -0.25 |
| RRIRERPPRLPRPRPRPAFLPRP | -0.289 |
| RRIRHRPPRLPRPRPRPVHVPRP | -0.16 |
| RRIRFRPPRLPRPRPRPTEMPRP | -0.105 |
| RRIRCRPPRLPRPRPRPREQPRP | 0.312 |
| RRIRNRPPRLPRPRPRPQIFPRP | -0.27 |
| RRIRMRPPRLPRPRPRPAIEPRP | 0.112 |
| RRIRCRPPRLPRPRPRPINIPRP | -0.702 |
| RRIRARPPRLPRPRPRPVIRPRP | -0.055 |
| RRIRHRPPRLPRPRPRPVGVPRP | -0.00247 |
| RRIRGRPPRLPRPRPRPKAHPRP | 0.625 |
| RRIRIRPPRLPRPRPRPYYEPRP | -1.06 |
| RRIRLRPPRLPRPRPRPASIPRP | 0.0291 |
| RRIRHRPPRLPRPRPRPDNNPRP | -0.453 |
| RRIRIRPPRLPRPRPRPNFKPRP | -0.144 |
| RRIRMRPPRLPRPRPRPTGDPRP | 1.3 |
| RRIRGRPPRLPRPRPRPGSTPRP | 0.75 |
| RRIRDRPPRLPRPRPRPLIDPRP | 0.0319 |
| RRIRSRPPRLPRPRPRPWTVPRP | -0.0297 |
| RRIRGRPPRLPRPRPRPTDLPRP | -0.109 |
| RRIRERPPRLPRPRPRPLCCPRP | -0.191 |
| RRIRKRPPRLPRPRPRPGWHPRP | 0.133 |
| RRIRVRPPRLPRPRPRPSWFPRP | -0.262 |
| RRIRHRPPRLPRPRPRPKQMPRP | -0.0152 |
